From the supplement of paper PMC10126150
± gives the standard deviation of the averaged measurements.

System: ATP
Assay: switch fluorescence ratio, 500 uM ATP over buffer (Cy3 cluster intensity, sum of 5 cycles each) (fold (ratio)); higher = stronger signal-on switching upon ATP binding; sequences stand for … in TCGTCGGCAGCGTCAGATGTGTATAAGAGACAGTTTTTTTTTTTTTTTTTTTTTTTTT…TC
Settings: aptamer strand: ATP DNA aptamer (quencher-CACCTGGGGGAGTATTGCGGAGGAAGG + anchor), 100 nM annealed; ATP concentration: 500 uM
In short: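 Clusters carrying Cy3-labelled switching strands on a modified Illumina MiSeq flow-cell were annealed to 100 nM quencher-labelled ATP aptamer and imaged in selection buffer. They were imaged again after 15 min with 500 uM ATP at 22 °C, over five buffer/ATP cycles with NaOH stripping and re-annealing in between. For each cluster, the fluorescence ratio is the summed Cy3 intensity of the target cycles divided by that of the buffer cycles, averaged per switch-domain sequence. Clusters outside 100-1000 RFU were left out.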
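Note: ATP exposure 15 min at 22 °C before imaging.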

GAGCTAGGGT
switch fluorescence ratio: 0.9905 ± 0.006

GAGCTAGTGT
switch fluorescence ratio: 0.9792 ± 0.0081

GAGCTCAGTG
switch fluorescence ratio: 1.002 ± 0.0069

GAGCTGAATG
switch fluorescence ratio: 0.9518 ± 0.0063

GAGCTGGATA
switch fluorescence ratio: 0.967 ± 0.03

GAGCTTAGGA
switch fluorescence ratio: 0.988 ± 0.013

GAGCTTGCGT
switch fluorescence ratio: 1.01 ± 0.025

GAGCTTGGCA
switch fluorescence ratio: 0.9859 ± 0.0058

GAGCTTGGGG
switch fluorescence ratio: 0.991 ± 0.028

GAGCTTTTCA
switch fluorescence ratio: 0.965 ± 0.023

GAGGAAAATA
switch fluorescence ratio: 0.981 ± 0.011

GAGGAAGTTA
switch fluorescence ratio: 1.06 ± 0.097

GAGGAATTTT
switch fluorescence ratio: 0.983 ± 0.0093

GAGGACTGTA
switch fluorescence ratio: 1.09 ± 0.025

GAGGAGCTCG
switch fluorescence ratio: 0.9522 ± 0.0045

GAGGAGGATA
switch fluorescence ratio: 0.953 ± 0.024

GAGGAGGCGG
switch fluorescence ratio: 1.03 ± 0.014

GAGGAGGGTT
switch fluorescence ratio: 0.992 ± 0.051

GAGGATAAGT
switch fluorescence ratio: 0.988 ± 0.078

GAGGATCTGT
switch fluorescence ratio: 0.961 ± 0.023

GAGGATGGGG
switch fluorescence ratio: 0.977 ± 0.039

GAGGCAGGGA
switch fluorescence ratio: 1.19 ± 0.16

GAGGCATTTT
switch fluorescence ratio: 1.09 ± 0.089

GAGGCCTTAC
switch fluorescence ratio: 1.69 ± 0.043

GAGGCGCGGA
switch fluorescence ratio: 1.01 ± 0.013

GAGGCTGATA
switch fluorescence ratio: 1.02 ± 0.013

GAGGCTTGTT
switch fluorescence ratio: 0.981 ± 0.01

GAGGGAAGAT
switch fluorescence ratio: 0.999 ± 0.014

GAGGGACGCT
switch fluorescence ratio: 1.02 ± 0.033

GAGGGAGCGT
switch fluorescence ratio: 1.002 ± 0.0083

GAGGGAGGGG
switch fluorescence ratio: 1.02 ± 0.044

GAGGGAGGTA
switch fluorescence ratio: 0.9658 ± 0.006

GAGGGAGTAG
switch fluorescence ratio: 0.9962 ± 0.0012

GAGGGAGTTG
switch fluorescence ratio: 0.997 ± 0.017

GAGGGATATT
switch fluorescence ratio: 1.02 ± 0.022

GAGGGATTCG
switch fluorescence ratio: 1.01 ± 0.014

GAGGGATTGT
switch fluorescence ratio: 1 ± 0.021

GAGGGCATCA
switch fluorescence ratio: 0.99 ± 0.015

GAGGGCGGAC
switch fluorescence ratio: 1.05 ± 0.19

GAGGGCTGGG
switch fluorescence ratio: 0.978 ± 0.079

GAGGGCTTAG
switch fluorescence ratio: 0.992 ± 0.016

GAGGGCTTCG
switch fluorescence ratio: 1.02 ± 0.1

GAGGGGGACA
switch fluorescence ratio: 0.9779 ± 0.0081

GAGGGGGACG
switch fluorescence ratio: 1 ± 0.14

GAGGGGGAGA
switch fluorescence ratio: 0.99 ± 0.024

GAGGGGGATA
switch fluorescence ratio: 1.03 ± 0.058

GAGGGGGCCG
switch fluorescence ratio: 0.996 ± 0.034

GAGGGGGCCT
switch fluorescence ratio: 0.989 ± 0.049

GAGGGGGGAA
switch fluorescence ratio: 1.01 ± 0.03

GAGGGGGGCT
switch fluorescence ratio: 1.023 ± 0.006

GAGGGGGGTT
switch fluorescence ratio: 1 ± 0.027

GAGGGGGTCG
switch fluorescence ratio: 1.02 ± 0.079

GAGGGGTAAT
switch fluorescence ratio: 0.986 ± 0.012

GAGGGGTAGC
switch fluorescence ratio: 0.988 ± 0.016

GAGGGTAAAT
switch fluorescence ratio: 1.02 ± 0.023

GAGGGTATTT
switch fluorescence ratio: 0.978 ± 0.03

GAGGGTCTGT
switch fluorescence ratio: 0.9794 ± 0.0048

GAGGGTGGAA
switch fluorescence ratio: 1.04 ± 0.12

GAGGGTGGCC
switch fluorescence ratio: 1.03 ± 0.031

GAGGGTGGGA
switch fluorescence ratio: 0.983 ± 0.031

GAGGGTGTGT
switch fluorescence ratio: 0.979 ± 0.038

GAGGGTTGCG
switch fluorescence ratio: 0.973 ± 0.011

GAGGGTTGTG
switch fluorescence ratio: 0.969 ± 0.031

GAGGTAAAAT
switch fluorescence ratio: 0.968 ± 0.016

GAGGTAGGGG
switch fluorescence ratio: 0.968 ± 0.021

GAGGTCATTA
switch fluorescence ratio: 0.9895 ± 0.0023

GAGGTCATTG
switch fluorescence ratio: 0.9996 ± 0.0018

GAGGTCTGGG
switch fluorescence ratio: 0.978 ± 0.015

GAGGTCTGTT
switch fluorescence ratio: 0.959 ± 0.029

GAGGTGAACA
switch fluorescence ratio: 1.04 ± 0.067

GAGGTGAGGC
switch fluorescence ratio: 1.03 ± 0.019

GAGGTGCATG
switch fluorescence ratio: 0.949 ± 0.024

GAGGTGCCAG
switch fluorescence ratio: 0.992 ± 0.031

GAGGTTATGC
switch fluorescence ratio: 0.968 ± 0.04

GAGGTTGG
switch fluorescence ratio: 1.02 ± 0.017

GAGGTTTCTT
switch fluorescence ratio: 1.01 ± 0.0048

GAGGTTTGTT
switch fluorescence ratio: 0.979 ± 0.023

GAGGTTTTGT
switch fluorescence ratio: 1 ± 0.023

GAGTAAACTT
switch fluorescence ratio: 1.056 ± 0.0082

GAGTAAAGCA
switch fluorescence ratio: 1.058 ± 0.0031

GAGTAAAGGG
switch fluorescence ratio: 0.9992 ± 0.0019

GAGTAAGATC
switch fluorescence ratio: 0.999 ± 0.048

GAGTAAGGGG
switch fluorescence ratio: 0.969 ± 0.025

GAGTAATGAG
switch fluorescence ratio: 0.984 ± 0.068

GAGTAATGGT
switch fluorescence ratio: 1.04 ± 0.02

GAGTACCTGG
switch fluorescence ratio: 1.01 ± 0.04

GAGTACGTTA
switch fluorescence ratio: 1.16 ± 0.013

GAGTACTTAG
switch fluorescence ratio: 1.03 ± 0.011

GAGTAGAAAG
switch fluorescence ratio: 0.9989 ± 0.0061

GAGTAGGGTT
switch fluorescence ratio: 0.983 ± 0.018

GAGTATGCGC
switch fluorescence ratio: 0.996 ± 0.017

GAGTATGTGC
switch fluorescence ratio: 0.9691 ± 0.0066

GAGTATGTTC
switch fluorescence ratio: 0.95 ± 0.017

GAGTCCACGT
switch fluorescence ratio: 1 ± 0.034

GAGTCCATTA
switch fluorescence ratio: 0.981 ± 0.015

GAGTCCATTG
switch fluorescence ratio: 1.02 ± 0.026

GAGTCCGTGG
switch fluorescence ratio: 1.1 ± 0.021

GAGTCGGCCT
switch fluorescence ratio: 0.975 ± 0.012

GAGTCTAGGA
switch fluorescence ratio: 1.01 ± 0.039

GAGTCTGAAA
switch fluorescence ratio: 1.141 ± 0.006

GAGTCTGCGT
switch fluorescence ratio: 1.08 ± 0.026

GAGTGAGGGA
switch fluorescence ratio: 1.03 ± 0.024

GAGTGAGGTG
switch fluorescence ratio: 1.01 ± 0.1

GAGTGAGTTA
switch fluorescence ratio: 0.977 ± 0.032

GAGTGCAGGA
switch fluorescence ratio: 1.01 ± 0.033

GAGTGGAGGT
switch fluorescence ratio: 0.985 ± 0.01

GAGTGGGAGC
switch fluorescence ratio: 0.997 ± 0.066

GAGTGGGGAT
switch fluorescence ratio: 1.02 ± 0.021

GAGTGGGTTG
switch fluorescence ratio: 0.982 ± 0.0092

GAGTGGTGTT
switch fluorescence ratio: 0.983 ± 0.049

GAGTGGTTTA
switch fluorescence ratio: 0.9913 ± 0.0096

GAGTGGTTTT
switch fluorescence ratio: 0.991 ± 0.063

GAGTGTAAGT
switch fluorescence ratio: 0.979 ± 0.01

GAGTGTGGGG
switch fluorescence ratio: 0.96 ± 0.03

GAGTGTTTGG
switch fluorescence ratio: 0.949 ± 0.034

GAGTTAATGC
switch fluorescence ratio: 1.01 ± 0.049

GAGTTAATTT
switch fluorescence ratio: 0.989 ± 0.017

GAGTTACAGG
switch fluorescence ratio: 1.04 ± 0.022

GAGTTAGTGC
switch fluorescence ratio: 0.982 ± 0.039

GAGTTAGTGG
switch fluorescence ratio: 1.01 ± 0.041

GAGTTCCCGG
switch fluorescence ratio: 1 ± 0.011

GAGTTCGTTT
switch fluorescence ratio: 1.02 ± 0.011

GAGTTCTAGG
switch fluorescence ratio: 0.991 ± 0.038

GAGTTGCGCG
switch fluorescence ratio: 1.01 ± 0.051

GAGTTGGGTG
switch fluorescence ratio: 1.01 ± 0.032

GAGTTTAAGA
switch fluorescence ratio: 0.979 ± 0.024

GAGTTTAAGG
switch fluorescence ratio: 0.9978 ± 0.009

GAGTTTAGTC
switch fluorescence ratio: 1.01 ± 0.013

GAGTTTGGGC
switch fluorescence ratio: 1.01 ± 0.039

GAGTTTGGTA
switch fluorescence ratio: 0.96 ± 0.027

GAGTTTGGTT
switch fluorescence ratio: 0.98 ± 0.063

GAGTTTGTCA
switch fluorescence ratio: 0.9917 ± 0.0087

GAGTTTTGTG
switch fluorescence ratio: 0.961 ± 0.015

GAGTTTTTTC
switch fluorescence ratio: 0.993 ± 0.018

GATAAAAGGA
switch fluorescence ratio: 1.002 ± 0.0063

GATAAAATGC
switch fluorescence ratio: 1.02 ± 0.044

GATAACGAGG
switch fluorescence ratio: 1.05 ± 0.02

GATACACCCG
switch fluorescence ratio: 1.153 ± 0.0039

GATACTATGT
switch fluorescence ratio: 1.01 ± 0.0085

GATACTGATA
switch fluorescence ratio: 1.032 ± 0.0098

GATACTTGGG
switch fluorescence ratio: 0.989 ± 0.035

GATAGAAGGA
switch fluorescence ratio: 1.02 ± 0.033

GATAGAGGGG
switch fluorescence ratio: 0.984 ± 0.028

GATAGCATTT
switch fluorescence ratio: 1.04 ± 0.039

GATAGCCCGT
switch fluorescence ratio: 0.99 ± 0.021

GATAGCCTGT
switch fluorescence ratio: 1.01 ± 0.027

GATAGCGCAG
switch fluorescence ratio: 1.01 ± 0.063

GATAGGACGC
switch fluorescence ratio: 1.05 ± 0.02

GATAGGAGCC
switch fluorescence ratio: 0.9977 ± 0.002

GATAGGCAAA
switch fluorescence ratio: 1.017 ± 0.0051

GATAGGGGGC
switch fluorescence ratio: 1.13 ± 0.28

GATAGGGGGG
switch fluorescence ratio: 1 ± 0.03

GATAGTGAGC
switch fluorescence ratio: 0.983 ± 0.036

GATAGTTAGG
switch fluorescence ratio: 1.01 ± 0.021

GATATAAACG
switch fluorescence ratio: 1.02 ± 0.03

GATATATAAT
switch fluorescence ratio: 1.014 ± 0.002

GATATCATTT
switch fluorescence ratio: 1.03 ± 0.022
